Test results taken from publication PMC6049025.

Target: wild-type HCMV gB expressed in HEK293T cells (human cytomegalovirus (strain not stated)) (UniProt P06473)
Test: far-Western, overlay or dot blot

Sequence of UniProt P06473 (P06473 32-906): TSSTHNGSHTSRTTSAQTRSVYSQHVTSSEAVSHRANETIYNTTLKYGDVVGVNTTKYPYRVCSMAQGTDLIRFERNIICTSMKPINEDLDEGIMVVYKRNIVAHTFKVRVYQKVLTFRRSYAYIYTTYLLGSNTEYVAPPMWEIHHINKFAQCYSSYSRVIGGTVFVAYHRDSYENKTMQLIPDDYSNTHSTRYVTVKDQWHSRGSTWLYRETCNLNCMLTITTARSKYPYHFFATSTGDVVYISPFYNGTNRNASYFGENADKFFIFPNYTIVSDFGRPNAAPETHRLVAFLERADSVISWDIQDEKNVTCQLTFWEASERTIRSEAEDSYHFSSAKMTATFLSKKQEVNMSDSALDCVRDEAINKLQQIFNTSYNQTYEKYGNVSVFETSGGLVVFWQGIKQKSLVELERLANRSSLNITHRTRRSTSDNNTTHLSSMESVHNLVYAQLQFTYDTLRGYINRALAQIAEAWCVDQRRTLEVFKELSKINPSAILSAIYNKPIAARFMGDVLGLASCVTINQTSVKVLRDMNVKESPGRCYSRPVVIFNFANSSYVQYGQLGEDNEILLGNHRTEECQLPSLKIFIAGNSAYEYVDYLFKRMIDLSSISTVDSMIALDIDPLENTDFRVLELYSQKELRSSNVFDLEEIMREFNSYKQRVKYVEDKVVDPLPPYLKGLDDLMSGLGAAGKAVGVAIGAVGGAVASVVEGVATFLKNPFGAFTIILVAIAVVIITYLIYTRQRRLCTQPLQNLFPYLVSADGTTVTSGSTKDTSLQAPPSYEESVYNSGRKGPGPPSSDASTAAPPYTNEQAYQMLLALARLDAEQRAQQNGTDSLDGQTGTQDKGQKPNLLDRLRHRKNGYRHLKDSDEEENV
Sequence of DC-SIGN-Fc (Q9NNX6 59-404): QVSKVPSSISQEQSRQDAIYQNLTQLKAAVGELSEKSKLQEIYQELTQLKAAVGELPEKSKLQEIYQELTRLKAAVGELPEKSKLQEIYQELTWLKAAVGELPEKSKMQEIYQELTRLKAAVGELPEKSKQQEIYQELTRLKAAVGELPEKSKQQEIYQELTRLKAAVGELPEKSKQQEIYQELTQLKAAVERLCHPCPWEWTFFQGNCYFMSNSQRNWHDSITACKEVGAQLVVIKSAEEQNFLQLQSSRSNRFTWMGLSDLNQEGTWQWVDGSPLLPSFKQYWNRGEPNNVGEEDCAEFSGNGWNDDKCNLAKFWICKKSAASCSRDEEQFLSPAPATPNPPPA

Substance: DC-SIGN-Fc (from UniProt Q9NNX6 59-404) (Fc fusion)
- DC-SIGN-Fc binding normalized on gB expression (ratio): 1.15
